No end group written: not given here.
Key:
[1] = target: Hyaluronan and proteoglycan link protein 4 (mouse) (UniProt Q80WM4); experiment: peptide-affinity chromatography of PBI mouse brain lysate, elution with free CAQK, LC-MS/MS
Versican core protein [2] = target: T1, Versican core protein (mouse, UniProt Q62059 24-3357, limits assumed); experiment: as above
T1 construct: Native chondroitin sulfate proteoglycan from brain lysate, identified by LC-MS/MS against the Mus musculus UniProt database; also called VCAN

Tenascin-R (mouse) [3] = target: Tenascin-R (mouse) (UniProt Q8BYI9); experiment: as above
Tenascin-R (mouse) [4] = target: Tenascin-R (mouse) (UniProt Q8BYI9); experiment: peptide-affinity chromatography of PBI mouse brain lysate, LC-MS/MS
Versican core protein [5] = target: T1, Versican core protein; experiment: peptide-affinity chromatography of PBI mouse brain lysate, LC-MS/MS (empty column denotes protein was not detected)
Description: (§1) Affinity Chromatography and Proteomics. For identifying CAQK binding proteins, mouse brains with brain injury were collected 6 hrs after injury. Using liquid nitrogen, the brains were crushed and ground into powder using a mortar and pestle. Next, brain tissue was lysed in PBS containing 200 mM n-octyl-beta-D-glucopyranoside and protease inhibitor cocktail (Roche) as described (Teesalu et al., PNAS 16157-16162 (2009)). The cleared lysate was loaded on to CAQK or control peptide (CGGK) coated Sulfolink-agarose beads (Pierce, Waltham, Mass.) and incubated at 4° C. for 3-4 hrs. The column was washed with wash buffer (75 mM octyl-beta-D-glucopyranoside and protease inhibitor cocktail in PBS) followed by washing with 0.5 mM control peptide in wash buffer to remove nonspecifically bound proteins. The bound proteins were eluted with 2 mM free CAQK peptide. The eluted factions were pooled, their protein concentration determined by using bicinchoninic acid (BCA) protein assay (Thermo Fischer) and the samples were digested using the Filter-aided Sample Preparation (FASP) method (Wisniewski et al., Nat Methods 6:359-362 (2009)). […] All mass spectra were analyzed with MaxQuant software version 1.5.0.25. […] Empty column denotes protein was not detected.

[6] = target: T2, Hyaluronan and proteoglycan link protein 4 (mouse, UniProt Q80WM4 31-400); experiment: as above
T2 construct: Native protein from brain lysate, identified by LC-MS/MS; also called Hapln4; HAPLN4
Description: as §1

Chain of Tenascin-R (mouse) (Q8BYI9 32-1358 limits assumed): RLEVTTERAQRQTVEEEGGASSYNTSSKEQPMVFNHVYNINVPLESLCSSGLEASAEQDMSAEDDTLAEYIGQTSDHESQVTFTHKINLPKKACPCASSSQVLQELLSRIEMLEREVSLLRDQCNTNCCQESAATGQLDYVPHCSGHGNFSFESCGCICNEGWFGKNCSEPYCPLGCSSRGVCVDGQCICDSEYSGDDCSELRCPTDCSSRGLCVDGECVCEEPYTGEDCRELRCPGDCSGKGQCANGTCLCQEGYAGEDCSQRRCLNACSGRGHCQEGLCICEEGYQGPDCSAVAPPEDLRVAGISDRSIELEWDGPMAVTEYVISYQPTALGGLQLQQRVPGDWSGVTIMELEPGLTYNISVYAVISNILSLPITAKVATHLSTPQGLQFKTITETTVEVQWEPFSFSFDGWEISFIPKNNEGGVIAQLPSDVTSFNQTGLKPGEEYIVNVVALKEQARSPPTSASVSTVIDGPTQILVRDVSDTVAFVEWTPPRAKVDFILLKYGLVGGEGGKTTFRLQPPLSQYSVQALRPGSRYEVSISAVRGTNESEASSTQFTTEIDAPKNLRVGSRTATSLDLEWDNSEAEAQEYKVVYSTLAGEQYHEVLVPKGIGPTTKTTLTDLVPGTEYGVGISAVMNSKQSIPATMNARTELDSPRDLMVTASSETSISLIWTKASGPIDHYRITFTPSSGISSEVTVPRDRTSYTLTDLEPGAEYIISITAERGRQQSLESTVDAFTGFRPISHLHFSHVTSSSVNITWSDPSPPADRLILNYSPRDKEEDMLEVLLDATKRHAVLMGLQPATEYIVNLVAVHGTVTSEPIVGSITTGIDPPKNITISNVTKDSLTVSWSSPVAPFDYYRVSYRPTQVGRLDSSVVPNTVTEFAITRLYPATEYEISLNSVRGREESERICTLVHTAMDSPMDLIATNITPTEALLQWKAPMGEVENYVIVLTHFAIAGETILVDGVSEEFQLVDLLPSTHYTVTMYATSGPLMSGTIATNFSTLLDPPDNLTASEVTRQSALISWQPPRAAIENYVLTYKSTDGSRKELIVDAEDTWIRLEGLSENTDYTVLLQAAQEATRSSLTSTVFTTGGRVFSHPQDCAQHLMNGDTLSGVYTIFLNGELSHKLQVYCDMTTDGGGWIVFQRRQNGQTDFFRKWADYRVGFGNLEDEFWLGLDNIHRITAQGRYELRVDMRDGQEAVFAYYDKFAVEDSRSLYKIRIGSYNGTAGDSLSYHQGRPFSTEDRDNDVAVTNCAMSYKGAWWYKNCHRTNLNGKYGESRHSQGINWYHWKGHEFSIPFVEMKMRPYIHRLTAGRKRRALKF
T1 sequence (Q62059 24-3357 limits assumed): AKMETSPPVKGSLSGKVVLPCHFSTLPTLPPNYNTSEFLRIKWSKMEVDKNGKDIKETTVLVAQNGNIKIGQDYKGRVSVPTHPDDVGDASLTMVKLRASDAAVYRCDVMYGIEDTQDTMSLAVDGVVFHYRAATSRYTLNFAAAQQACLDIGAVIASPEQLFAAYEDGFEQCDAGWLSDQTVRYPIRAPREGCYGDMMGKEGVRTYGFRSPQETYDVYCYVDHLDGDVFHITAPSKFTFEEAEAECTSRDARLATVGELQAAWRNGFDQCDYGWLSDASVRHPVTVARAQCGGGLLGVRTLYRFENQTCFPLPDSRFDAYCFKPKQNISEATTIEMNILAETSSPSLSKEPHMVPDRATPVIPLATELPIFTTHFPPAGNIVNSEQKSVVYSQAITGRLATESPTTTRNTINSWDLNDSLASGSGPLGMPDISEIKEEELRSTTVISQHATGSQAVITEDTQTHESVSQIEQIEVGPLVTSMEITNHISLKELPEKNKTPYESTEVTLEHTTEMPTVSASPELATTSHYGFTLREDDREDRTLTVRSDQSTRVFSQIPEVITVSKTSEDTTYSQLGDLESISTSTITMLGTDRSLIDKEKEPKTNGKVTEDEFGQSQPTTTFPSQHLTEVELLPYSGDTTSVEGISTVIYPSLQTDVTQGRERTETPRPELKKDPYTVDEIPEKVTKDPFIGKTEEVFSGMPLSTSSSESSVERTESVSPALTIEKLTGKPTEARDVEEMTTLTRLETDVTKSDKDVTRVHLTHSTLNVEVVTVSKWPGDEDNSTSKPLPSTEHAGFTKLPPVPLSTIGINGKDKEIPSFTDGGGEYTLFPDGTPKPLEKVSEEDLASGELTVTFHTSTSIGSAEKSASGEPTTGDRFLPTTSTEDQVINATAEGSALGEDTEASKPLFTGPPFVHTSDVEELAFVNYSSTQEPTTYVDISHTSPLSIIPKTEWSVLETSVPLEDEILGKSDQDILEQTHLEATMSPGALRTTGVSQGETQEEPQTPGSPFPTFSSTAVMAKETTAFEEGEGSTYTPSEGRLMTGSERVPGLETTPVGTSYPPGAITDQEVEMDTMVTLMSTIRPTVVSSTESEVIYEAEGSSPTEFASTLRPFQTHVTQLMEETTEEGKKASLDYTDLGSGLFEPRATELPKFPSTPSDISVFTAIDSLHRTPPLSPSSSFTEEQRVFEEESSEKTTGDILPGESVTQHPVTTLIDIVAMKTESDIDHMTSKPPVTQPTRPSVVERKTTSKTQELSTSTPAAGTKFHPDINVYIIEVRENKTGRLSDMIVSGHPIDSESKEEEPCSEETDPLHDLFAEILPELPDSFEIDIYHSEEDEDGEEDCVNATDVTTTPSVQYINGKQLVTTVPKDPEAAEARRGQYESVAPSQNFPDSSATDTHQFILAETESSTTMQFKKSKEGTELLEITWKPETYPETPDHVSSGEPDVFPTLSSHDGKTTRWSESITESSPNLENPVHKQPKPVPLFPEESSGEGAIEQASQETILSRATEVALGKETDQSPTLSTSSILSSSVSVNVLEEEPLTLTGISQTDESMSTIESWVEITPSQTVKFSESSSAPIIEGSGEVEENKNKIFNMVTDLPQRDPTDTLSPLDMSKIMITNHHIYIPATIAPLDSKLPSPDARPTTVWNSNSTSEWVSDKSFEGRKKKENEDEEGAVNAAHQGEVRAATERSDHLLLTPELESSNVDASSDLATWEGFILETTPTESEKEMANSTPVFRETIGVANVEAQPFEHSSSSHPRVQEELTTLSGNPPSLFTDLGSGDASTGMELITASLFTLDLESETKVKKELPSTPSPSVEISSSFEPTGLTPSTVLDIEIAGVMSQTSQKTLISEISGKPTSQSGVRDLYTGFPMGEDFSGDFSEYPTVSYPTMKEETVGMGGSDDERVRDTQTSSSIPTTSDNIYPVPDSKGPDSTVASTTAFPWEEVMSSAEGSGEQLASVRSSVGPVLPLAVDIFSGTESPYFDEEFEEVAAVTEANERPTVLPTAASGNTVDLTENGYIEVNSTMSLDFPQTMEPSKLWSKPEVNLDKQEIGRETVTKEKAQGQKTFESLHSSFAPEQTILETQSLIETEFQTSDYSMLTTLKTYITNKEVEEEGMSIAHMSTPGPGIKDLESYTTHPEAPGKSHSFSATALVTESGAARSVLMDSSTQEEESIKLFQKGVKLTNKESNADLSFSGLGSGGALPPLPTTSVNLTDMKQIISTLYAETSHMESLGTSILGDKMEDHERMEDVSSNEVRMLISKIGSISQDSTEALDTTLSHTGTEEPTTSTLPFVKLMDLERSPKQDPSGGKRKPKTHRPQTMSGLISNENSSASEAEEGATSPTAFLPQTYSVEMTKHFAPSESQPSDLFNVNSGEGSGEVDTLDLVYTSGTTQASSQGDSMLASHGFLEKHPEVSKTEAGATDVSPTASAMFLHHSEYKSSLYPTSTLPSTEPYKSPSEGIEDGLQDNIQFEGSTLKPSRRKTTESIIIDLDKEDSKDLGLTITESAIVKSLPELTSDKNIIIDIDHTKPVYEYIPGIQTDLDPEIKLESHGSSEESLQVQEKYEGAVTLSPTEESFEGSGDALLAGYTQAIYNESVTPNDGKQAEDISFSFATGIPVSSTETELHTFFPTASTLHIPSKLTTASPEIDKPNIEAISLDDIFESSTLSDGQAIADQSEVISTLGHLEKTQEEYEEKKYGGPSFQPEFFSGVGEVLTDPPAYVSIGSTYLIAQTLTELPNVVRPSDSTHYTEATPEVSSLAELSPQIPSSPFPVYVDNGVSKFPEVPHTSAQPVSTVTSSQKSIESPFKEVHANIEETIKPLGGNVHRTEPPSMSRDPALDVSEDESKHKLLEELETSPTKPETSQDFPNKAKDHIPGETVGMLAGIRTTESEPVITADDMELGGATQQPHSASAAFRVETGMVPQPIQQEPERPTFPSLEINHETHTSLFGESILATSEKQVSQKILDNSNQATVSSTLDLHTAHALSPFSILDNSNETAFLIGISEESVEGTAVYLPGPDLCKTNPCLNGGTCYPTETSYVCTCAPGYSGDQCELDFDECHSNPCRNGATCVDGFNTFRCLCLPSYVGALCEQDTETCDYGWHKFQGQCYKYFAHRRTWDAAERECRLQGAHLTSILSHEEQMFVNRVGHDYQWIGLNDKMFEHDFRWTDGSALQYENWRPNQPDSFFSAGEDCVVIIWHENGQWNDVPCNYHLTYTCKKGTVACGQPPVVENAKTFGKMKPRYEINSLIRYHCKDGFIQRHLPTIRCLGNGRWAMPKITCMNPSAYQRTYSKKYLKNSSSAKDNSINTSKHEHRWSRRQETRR
Chain of Hyaluronan and proteoglycan link protein 4 (mouse) (Q80WM4 31-400 limits assumed): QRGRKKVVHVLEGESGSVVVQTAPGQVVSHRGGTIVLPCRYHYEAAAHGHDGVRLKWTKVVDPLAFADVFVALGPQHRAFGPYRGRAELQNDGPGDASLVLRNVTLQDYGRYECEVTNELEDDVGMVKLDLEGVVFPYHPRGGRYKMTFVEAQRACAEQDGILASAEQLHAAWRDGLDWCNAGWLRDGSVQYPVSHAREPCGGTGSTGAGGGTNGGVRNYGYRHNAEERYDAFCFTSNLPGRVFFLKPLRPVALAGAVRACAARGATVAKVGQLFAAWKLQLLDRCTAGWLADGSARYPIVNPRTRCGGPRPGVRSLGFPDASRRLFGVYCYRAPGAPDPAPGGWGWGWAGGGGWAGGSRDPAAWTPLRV
T2 sequence (Q80WM4 31-400 limits assumed): as above

Work on CAQK peptide yielded a Log2 LFQ intensity (log2 LFQ intensity) [1] of 19.8, a Log2 LFQ intensity (log2 LFQ intensity) (Versican core protein [2]) of 26 and a Log2 LFQ intensity (log2 LFQ intensity) (Tenascin-R (mouse) [3]) of 26.7.

Molecule control peptide (CGGK) has a Log2 LFQ intensity (log2 LFQ intensity) (Tenascin-R (mouse) [4]) of 24.1.

CGGK (not fully specified (N-terminus, C-terminus), also called CGGK column) [control peptide (CGGK)]: no binding (Versican core protein [5]); no binding [6].

Reference: patent US20180296696A1 (SANFORD BURNHAM PREBYS MEDICAL DISCOVERY INSTITUTE, published 2018)
